According to paper PMC9426445 (mBio, 2022):

Experiments:
[1] = molecular target: LI-LASV-pfGP soluble ectodomain monomer (lineage I Lassa virus prefusion glycoprotein) (Lassa virus lineage I, strain Pinneo, stabilised); assay: BLI; Octet Red384; […] (AHC) capture sensors at 2.5 ug/mL; […]; 1x kinetics buffer (PBS, 0.1% BSA, 0.02% Tween 20); 1:1 fit; […]; conditions: both partners purified
[2] = molecular target: LIV-GP, soluble lineage IV LASV pfGP monomer (Lassa virus lineage IV, strain Josiah, stabilised); assay: as above; conditions: both partners purified

| Binder | Kd [1] [nM] | koff [1] [s⁻¹] | kon [1] [M⁻¹ s⁻¹] | Kd [2] [nM] | koff [2] [s⁻¹] | kon [2] [M⁻¹ s⁻¹] |
| --- | --- | --- | --- | --- | --- | --- |
| GPC-B antibody 18.5C (IgG) (antibody, V domains shown, copies: 2 + 2) VH: EVQLVQSGGGLVRPGGSLRLSCAAAGFTFKSYSMNWVRQAPGRGLEWVSSITSGGSKTYYADVVKGRFTVSRDNAKQSLYLQMNSLRAEDTAIYFCARSLHSTSQPSYMDVWGRKITVIVSS VL: DIVLTQSPGTLSLSPGERATLSCRASQSVISYYVAWYQHKGGQAPRLLIYGASSRATGVPDRFSGSGSGTDFTLTISSLEPEDFALYYCQYYGSSPLWAFGQGTKVEIK | 2.86 | 0.00235 | 819000 | 0.091 | 7.8e-05 | 858000 |
| engineered GPC-B antibody 18.5C-M30 (IgG) (antibody, V domains shown, copies: 2 + 2) VH: EVQLVQSGGGLVRPGGSLRLSCAAAGFTFKSYSMNWVRQAPGRGLEWVSSITSRGGSKTYYADVVKGRFTVSRDNAKQSLYLQMNSLRAEDTAIYFCARSRHSTSQPSYMDVWGRKITVIVSS VL: DIVLTQSPGTLSLSPGERATLSCRASQSVISYYVAWYQHKGGQAPRLLIYGASSRATGVPDRFSGSGSGTDFTLTISSLEPEDFALYYCQYYGSSPLWAFGQGTKVEIK | 0.559 | 0.000423 | 757000 | 0.047 | 3.67e-05 | 780000 |
| GPC-A antibody 25.10C (IgG) (antibody, V domains shown, copies: 2 + 2) VH: QVQLQESGGGLVKPGGSLRLSCTASGFNFNKYNMNWVRQAPGKGLEWVSSISALSTYIYYADSLKGRFTVSRDNAKNSLFLQMNSLRDDDTAVYYCAREIRRASTWSADLWGRGTLVTVSS VL: DIQMTQSPSSLSASVGDRVIITCRASQSISSSLNWYQQKPGKAPKLLIYAAVNLETGVPSRFSGSGFGTDFTLAISNVQPEDFATYYCQQSDTRTFGRGTKLDVK | 3.52 | 0.000387 | 110000 | < 0.001 | < 1e-07 | 150000 |
